Data as given in patent publication US20240343788A1 (published 2024).

Target: T1, A155
T1 construct: also called antibody-based multispecific antagonist A155
Test: BLI (Octet RED96), antagonist captured on biosensor, ligand in solution
Text: The binding sensorgrams were collected using the 8-channel detection mode on the biosensor.

- Kd: ~20 nM
B1: TGF-β3 (ligand)
chain: ALDTNYCFRNLEENCCVRPLYIDFRQDLGWKWVHEPKGYYANFCSGPCPYLRSADTTHSTVLGLYNTLNPEASASPCCVPQDLEPLTILYYVGRTPKVEQLSNMVVKSCKCS
notes: also called TGF-33 (misprint in the text)
